Where two headings read alike, the source gives them in different places. Values belong to the binder of their own block, whether it stands above or below them.
Tests used:
[1] = molecular target: T1, human [1-305]-mouse chimeric EL (human; mouse, UniProt Q9WVG5 306-500); assay: cell-based or functional assay
T1 sequence: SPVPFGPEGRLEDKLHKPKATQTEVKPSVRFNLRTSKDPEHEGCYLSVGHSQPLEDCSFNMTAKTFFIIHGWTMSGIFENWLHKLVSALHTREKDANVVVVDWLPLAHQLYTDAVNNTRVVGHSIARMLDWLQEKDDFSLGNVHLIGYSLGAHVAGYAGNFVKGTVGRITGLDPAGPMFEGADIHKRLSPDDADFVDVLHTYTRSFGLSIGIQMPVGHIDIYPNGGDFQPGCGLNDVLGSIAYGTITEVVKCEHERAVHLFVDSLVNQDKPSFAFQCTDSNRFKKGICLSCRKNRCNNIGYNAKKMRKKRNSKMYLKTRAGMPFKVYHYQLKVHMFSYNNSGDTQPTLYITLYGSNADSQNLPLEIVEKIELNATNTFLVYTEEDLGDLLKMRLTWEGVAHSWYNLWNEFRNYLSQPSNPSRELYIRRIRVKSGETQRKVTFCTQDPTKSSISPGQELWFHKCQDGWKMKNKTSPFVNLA

rabbit EL = rabbit EL (rabbit); assay: cell-based or functional assay
[2] = molecular target: human-mouse chimeric EL (construct not specified); assay: cell-based or functional assay
baboon EL [3] = molecular target: baboon EL (baboon); assay: cell-based or functional assay
cynomolgus monkey EL [4] = molecular target: cynomolgus monkey EL (cynomolgus monkey); assay: cell-based or functional assay
cynomolgus monkey EL [5] = molecular target: cynomolgus monkey EL (cynomolgus monkey); assay: cell-based or functional assay; remark: listed apart in the source
[6] = molecular target: T1, human [1-305]-mouse chimeric EL; assay: Biacore; EL captured by anti-C2-tag Ab; bivalent fit
Experimental: (§1) The binding affinities of anti-EL antibodies were measured using Biacore. […] Then, anti-EL antibodies were added and the binding affinities were calculated by bivalent fitting of BIAevaluation software.

baboon EL [7] = molecular target: T2, baboon EL (baboon); assay: as above
T2 construct: Heparin extract
Experimental: as §1

cynomolgus monkey EL [8] = molecular target: T3, cynomolgus monkey EL (cynomolgus monkey); assay: as above
T3 construct: Heparin extract; also called cynomolgus EL; Cynomolgus EL
Experimental: as §1

mouse EL = molecular target: T4, mouse EL (mouse, UniProt Q9WVG5 21-500); assay: ELISA: antibody captured on anti-mouse IgG-Fc plate, EL heparin extract added, detection with biotin anti-C2-tag antibody and HRP-streptavidin, A450
T4 construct: Heparin extract
T4 sequence (looked up): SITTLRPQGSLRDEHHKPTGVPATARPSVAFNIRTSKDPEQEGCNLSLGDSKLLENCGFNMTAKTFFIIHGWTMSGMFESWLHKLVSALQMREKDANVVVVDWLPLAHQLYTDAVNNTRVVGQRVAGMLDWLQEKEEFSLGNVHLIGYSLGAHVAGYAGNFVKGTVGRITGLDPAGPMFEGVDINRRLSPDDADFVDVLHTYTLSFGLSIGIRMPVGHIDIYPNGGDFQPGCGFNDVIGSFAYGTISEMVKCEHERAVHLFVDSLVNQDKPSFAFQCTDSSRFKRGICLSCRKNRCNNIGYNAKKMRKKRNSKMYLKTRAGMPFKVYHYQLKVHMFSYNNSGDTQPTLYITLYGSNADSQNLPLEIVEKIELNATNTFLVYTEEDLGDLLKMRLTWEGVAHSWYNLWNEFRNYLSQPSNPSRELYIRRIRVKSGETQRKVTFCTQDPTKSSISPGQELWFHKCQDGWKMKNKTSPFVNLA
Experimental: (§2) Assay buffer containing 15 μl of anti-EL antibody was added to anti-mouse IgG-Fc antibody-immobilized microtiter plate, and incubated for 2 hr. […] After washing the wells three times with 90 μL of washing buffer, 15 μl of assay buffer containing biotin-labeled anti-C2-tag antibody and HRP-labeled Streptavidin were added to the wells and incubated at room temperature for 1 hr. After washing the wells three times with 90 μL of washing buffer, 15 μL of TMB+—Substrate—Chromogen (DAKO) was added and incubated at room temperature for 30 min and then 15 μL of 0.05 M H2SO₄ was added and absorbance at 450 nm was measured (FIG. 3A to 3K).

baboon EL [9] = molecular target: T2, baboon EL; assay: as above
Experimental: as §2

cynomolgus monkey EL [10] = molecular target: T3, cynomolgus monkey EL; assay: as above
Experimental: as §2

[11] = molecular target: T5, human [1-157]-mouse chimeric EL (human; mouse, UniProt Q9WVG5 158-500); assay: as above
T5 construct: Heparin extract, detected by an anti-C2-tag antibody
T5 sequence: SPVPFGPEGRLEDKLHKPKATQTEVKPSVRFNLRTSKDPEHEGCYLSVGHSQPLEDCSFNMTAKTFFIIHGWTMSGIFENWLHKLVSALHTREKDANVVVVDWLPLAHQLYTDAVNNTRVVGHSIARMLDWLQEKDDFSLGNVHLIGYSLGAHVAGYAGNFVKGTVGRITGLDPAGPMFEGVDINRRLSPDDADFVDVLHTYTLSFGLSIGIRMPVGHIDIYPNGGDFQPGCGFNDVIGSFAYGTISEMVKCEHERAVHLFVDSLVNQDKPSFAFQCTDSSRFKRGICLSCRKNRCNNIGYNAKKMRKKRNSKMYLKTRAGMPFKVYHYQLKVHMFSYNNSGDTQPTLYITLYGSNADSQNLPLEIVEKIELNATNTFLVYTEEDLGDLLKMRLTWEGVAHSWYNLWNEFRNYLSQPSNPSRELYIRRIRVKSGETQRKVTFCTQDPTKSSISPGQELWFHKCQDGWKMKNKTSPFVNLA
Experimental: as §2

Neutralizing activity IC50 [1]: 4.1 nM
Neutralizing activity IC50 (rabbit EL): 13 nM
Neutralizing activity IC50 [2]: 4.1 nM
Neutralizing activity IC50 (baboon EL [3]): 2.6 nM
Neutralizing activity IC50 (cynomolgus monkey EL [4]): 1.7 nM
Neutralizing activity IC50 (cynomolgus monkey EL [5]): 3.1 nM
Kd [6]: 0.91 nM
koff [6]: 0.00014 s⁻¹
kon [6]: 150000 M⁻¹ s⁻¹
Kd (baboon EL [7]): 5.1 nM
koff (baboon EL [7]): 0.00031 s⁻¹
kon (baboon EL [7]): 61000 M⁻¹ s⁻¹
Kd (cynomolgus monkey EL [8]): 8.7 nM
koff (cynomolgus monkey EL [8]): 0.00041 s⁻¹
kon (cynomolgus monkey EL [8]): 47000 M⁻¹ s⁻¹
binding result (mouse EL): no binding (tested: about 330 ng/mL)
EC50 (read off the curve) (baboon EL [9]): ~20 ng/mL
EC50 (read off the curve) (cynomolgus monkey EL [10]): ~10 ng/mL
EC50 (read off the curve) [11]: ~4 ng/mL
B1: 13B3 (antibody, mouse IgG2a, V domains shown)
VH: EVQLQQSGPELLKPGASVKISCKASGYTFTEYTMHWVKQSHGKSLEWIGSINPYYGGTSYNEKFKDKATLTVDKSSNTAYMEFRSLTSEDCAVYYCARYGNYVGYFDYWGQGTTLTVSS
VL: ENVLTQSPAIMSASLGEKVTMSCRASSSVHYMYWYQQKSDASPKLWIYYTSNLAPGVPDRFSGSGSGNSYSLTISSMEGEDAATYYCQQFTSSPYTFGGGTKLEIK
notes: mouse IgG2a from hybridoma; also called 13B3 (mouse mAb)

Neutralizing activity IC50 [1]: 1.7 nM
Neutralizing activity IC50 (rabbit EL): 67 nM
Neutralizing activity IC50 [2]: 1.7 nM
Neutralizing activity IC50 (baboon EL [3]): 3.2 nM
Neutralizing activity IC50 (cynomolgus monkey EL [4]): 2.7 nM
Neutralizing activity IC50 (cynomolgus monkey EL [5]): 1.4 nM
Kd [6]: 0.87 nM
koff [6]: 0.00011 s⁻¹
kon [6]: 120000 M⁻¹ s⁻¹
Kd (baboon EL [7]): 2.9 nM
koff (baboon EL [7]): 0.00044 s⁻¹
kon (baboon EL [7]): 150000 M⁻¹ s⁻¹
Kd (cynomolgus monkey EL [8]): 6.1 nM
koff (cynomolgus monkey EL [8]): 0.00075 s⁻¹
kon (cynomolgus monkey EL [8]): 120000 M⁻¹ s⁻¹
binding result (mouse EL): no binding (tested: about 330 ng/mL)
EC50 (read off the curve) (baboon EL [9]): ~20 ng/mL
EC50 (read off the curve) (cynomolgus monkey EL [10]): ~8 ng/mL
EC50 (read off the curve) [11]: ~4 ng/mL
B2: 23H8 (antibody, mouse IgG2a, V domains shown)
VH: EVQLQQSGPELLKPGASVKISCKASGYTFTDNTIHWVKQSHGKSLEWIGHINPYYGGTNNNEKFKDKATLTVDKSSSTAYMELRSLTSEDSAIYYCARKGIYYSSPFDYWGQGTTLTVSS
VL: DIQMTQTTSSLSASLGDRVTISCRASQDINNYLNWYQQKPDGTVKLLISYTSKLHSGVPSRFSGSGSGTDYSLTISNLEREDFATYFCQQGNTLPFTFGSGTNLEIK
notes: mouse IgG2a from hybridoma; also called 23H8 (mouse mAb)

Neutralizing activity IC50 [1]: 1.1 nM
Neutralizing activity IC50 [2]: 1.1 nM
Neutralizing activity IC50 (baboon EL [3]): 2 nM
Neutralizing activity IC50 (cynomolgus monkey EL [4]): 1.5 nM
Neutralizing activity IC50 (cynomolgus monkey EL [5]): 1.3 nM
Kd [6]: 0.73 nM
koff [6]: 0.00014 s⁻¹
kon [6]: 190000 M⁻¹ s⁻¹
Kd (baboon EL [7]): 1.2 nM
koff (baboon EL [7]): 0.00042 s⁻¹
kon (baboon EL [7]): 350000 M⁻¹ s⁻¹
Kd (cynomolgus monkey EL [8]): 1.7 nM
koff (cynomolgus monkey EL [8]): 0.00044 s⁻¹
kon (cynomolgus monkey EL [8]): 250000 M⁻¹ s⁻¹
binding result (mouse EL): no binding (tested: about 330 ng/mL)
EC50 (read off the curve) (baboon EL [9]): ~10 ng/mL
EC50 (read off the curve) (cynomolgus monkey EL [10]): ~5 ng/mL
EC50 (read off the curve) [11]: ~4 ng/mL
B3: 55A1 (antibody, mouse IgG2a, V domains shown)
VH: QIHLVQSGPELKKPGETVKISCKASGYTFTNYGMNWVKQAPGKGLKWMGWINTYSGVPTYAGDFKGRFAFSLETSASTAYLQINNLKNEDTATYFCARRGYYGRRYFDVWGTGTTVTVSS
VL: DIVLTQSPASLAVSLGQRATISCKASQSVDYDVDSYMHWYQQKPGQPPKLLIYAASNLASGIPARFSGGGSGTDFTLNIHPVEEEDVATYYCQQTIEDPPTFGGGTKLEIK
notes: mouse IgG2a from hybridoma; also called 55A1 (mouse mAb)

— patent US20200071424A1 (SHIONOGI, published 2020)
